Values joined by “and” are separate entries in the source; they are usually repeats but may differ in a detail not shown here. Equal entries are not always repeated.
B5: strep-Hop1 (full length, Hop1-Red1 complex from Hi5 cells) (natural protein, Saccharomyces cerevisiae, UniProt P20050 1-605, looked up)
chain: MSNKQLVKPKTETKTEITTEQSQKLLQTMLTMSFGCLAFLRGLFPDDIFVDQRFVPEKVEKNYNKQNTSQNNSIKIKTLIRGKSAQADLLLDWLEKGVFKSIRLKCLKALSLGIFLEDPTDLLENYIFSFDYDEENNVNINVNLSGNKKGSKNADPENETISLLDSRRMVQQLMRRFIIITQSLEPLPQKKFLTMRLMFNDNVDEDYQPELFKDATFDKRATLKVPTNLDNDAIDVGTLNTKHHKVALSVLSAATSSMEKAGNTNFIRVDPFDLILQQQEENKLEESVPTKPQNFVTSQTTNVLGNLLNSSQASIQPTQFVSNNPVTGICSCECGLEVPKAATVLKTCKSCRKTLHGICYGNFLHSSIEKCFTCIFGPSLDTKWSKFQDLMMIRKVFRFLVRKKKGFPASITELIDSFINVEDQNNEVKERVAFALFVFFLDETLCLDNGGKPSQTIRYVTSSVLVDVKGIVIPNTRKQLNVNHEYKWHFTTSSPKAESFYQEVLPNSRKQVESWLQDITNLRKVYSEALSPSSTLQELDLNSSLPTQDPIISGQKRRRYDLDEYLEEDKSSVVNDTIKAKDFDESVPAKIRKISVSKKTLKSNW
B6: Red1^I743R-MBP (Hop1-Red1 complex from Hi5 cells) (natural protein, Saccharomyces cerevisiae, UniProt P14291 1-827, looked up)
chain: MEGLKKKIFGVCLKNDLAQTRNETKGIHYGLMTLETSKQLQEFLHLLVIKREVIQNFELLFHIINVAVKITDSNLPSDDIWHFILKLRFSSEINIDEDSKVLNYLLETGIAMENPVSWKCLAVISSILSSVPQSKKIITNLIETEHAKKIGQLFDNIQDLQQGNFLVEILSNCFKKSASNSKKVEKIPQLWQSRSKNKFFFENEFYPFSSKNGSLQTCQFLCNNFMSTLSFTGILRQVSYSGSETLKNLRIFKKKDDENSYFIQCIYNKIYLWLDEKAPLEFERKKIRITKNLKNKIQIKLRQPFHECVRTTADKTALLFNKTKGFQLEFEDEKLGETFFHNVNNIPKISEVQNFLVLDYIEEEPENEGEEEEQIGRADEQKEDEEEESLDELSTPMVYPIKSSIPHNHNEKVQLVTPDRSVSIRSDEWDLKSNTEDEEGNVLADLKISSTKETKRQTDYVHIDSEDQSPVVSAQMRKMRRESTKTLEILRQEFKDKDVQNKEDQSEQIQNPFVNTSSLVVGKSCLVNPKEKPNIDQTVVGITELKSNSSIKKRDINILDTIFGQPPSKKQKQFHKKEKKKQQKKLTNFKPIIDVPSQDKRNLRSNAPTKPKSIKVSKLRTDKKVTGEKSSPETAAEKVDDQTVRSNDEQAMSRATKEKCFPDVNEGKEITKDDAKVSLESKKNNETFVDSSVVEKHTPPDKDCNNCNITDILESTTVIDLQSPHGLSAPGQNTFTNKLQEQRYSSINHFSNELVRKISIINQELNKKILKELSEKYQKLFSELQDNFQNDTNEMLKFMGEIKDMMNLPEDQLVHAIRTRKFDNNKR

Tests used:
strep-Hop1 FL K593A = target: T1, strep-Hop1 FL K593A (Saccharomyces cerevisiae, UniProt P20050 1-605, K593A); experiment: pull-down
T1 sequence (looked up): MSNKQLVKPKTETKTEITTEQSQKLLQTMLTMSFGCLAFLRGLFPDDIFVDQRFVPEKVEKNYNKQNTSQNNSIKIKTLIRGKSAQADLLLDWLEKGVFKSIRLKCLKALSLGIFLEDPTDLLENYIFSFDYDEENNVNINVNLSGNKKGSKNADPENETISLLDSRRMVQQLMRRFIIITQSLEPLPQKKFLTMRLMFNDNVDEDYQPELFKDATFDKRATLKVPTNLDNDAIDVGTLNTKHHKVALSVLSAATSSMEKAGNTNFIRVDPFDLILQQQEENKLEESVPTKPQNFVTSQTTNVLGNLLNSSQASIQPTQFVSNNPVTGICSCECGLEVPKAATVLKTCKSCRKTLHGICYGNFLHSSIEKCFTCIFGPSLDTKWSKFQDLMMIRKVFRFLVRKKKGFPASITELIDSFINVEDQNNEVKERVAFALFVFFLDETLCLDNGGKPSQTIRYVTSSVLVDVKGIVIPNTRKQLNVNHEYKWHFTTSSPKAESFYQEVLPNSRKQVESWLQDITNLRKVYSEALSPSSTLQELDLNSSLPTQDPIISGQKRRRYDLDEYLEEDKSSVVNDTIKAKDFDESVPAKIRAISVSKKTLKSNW

mass photometry = target: the molecule itself; experiment: mass photometry
SEC-MALS = target: the molecule itself; experiment: SEC-MALS
[1] = target: B6; experiment: cross-linking
[2] = target: B6; experiment: pull-down
[3] = target: B5; experiment: mass photometry

FHNVNNIPKISEVQNFLVLDYIE (peptide, UniProt P14291 340-362, looked up) [MBP-Red1 (340-362), wild-type closure motif]: binds (strep-Hop1 FL K593A).

B1: MBP-Red1^733-827/I743R (domain or fragment, Saccharomyces cerevisiae, UniProt P14291 733-827, looked up)
chain: NTFTNKLQEQRYSSINHFSNELVRKISIINQELNKKILKELSEKYQKLFSELQDNFQNDTNEMLKFMGEIKDMMNLPEDQLVHAIRTRKFDNNKR
In the case of B1, the “stoichiometry N” value (mass photometry) is reported as 2 and the “stoichiometry N” value (SEC-MALS) is reported as 4.

B2: MBP-Red1^733-819 (WT) (domain or fragment, Saccharomyces cerevisiae, UniProt P14291 733-819, looked up)
chain: NTFTNKLQEQIYSSINHFSNELVRKISIINQELNKKILKELSEKYQKLFSELQDNFQNDTNEMLKFMGEIKDMMNLPEDQLVHAIRT
In the case of B2, the “stoichiometry N” value (mass photometry) is reported as 4.

B3: MBP-Red1^733-819/I743R (domain or fragment, Saccharomyces cerevisiae, UniProt P14291 733-819, looked up)
chain: NTFTNKLQEQRYSSINHFSNELVRKISIINQELNKKILKELSEKYQKLFSELQDNFQNDTNEMLKFMGEIKDMMNLPEDQLVHAIRT
For B3, the “stoichiometry N” value (mass photometry) was 4.

B4: MBP-Red1^733-827 (coiled-coil, WT) (domain or fragment, Saccharomyces cerevisiae, UniProt P14291 733-827, looked up)
chain: NTFTNKLQEQIYSSINHFSNELVRKISIINQELNKKILKELSEKYQKLFSELQDNFQNDTNEMLKFMGEIKDMMNLPEDQLVHAIRTRKFDNNKR
For B4, the “stoichiometry N” value (mass photometry) was 2 and 4.

B5: binds [1]; binds [2].

In the case of B6, the “stoichiometry N” value [3] is reported as 1.
